Several values for one entry are separate records, joined by “and”; a condition that tells them apart may be missing. Identical values can stand only once.
B1: Adenosine deaminase, P03958 (parent)
chain: MAQTPAFNKPKVELHVHLDGAIKPETILYFGKKRGIALPADTVEELRNIIGMDKPLSLPGFLAKFDYYMPVIAGCREAIKRIAYEFVEMKAKEGVVYVEVRYSPHLLANSKVDPMPWNQTEGDVTPDDVVDLVNQGLQEGEQAFGIKVRSILCCMRHQPSWSLEVLELCKKYNQKTVVAMDLAGDETIEGSSLFPGHVEAYEGAVKNGIHRTVHAGEVGSPEVVREAVDILKTERVGHGYHTIEDEALYNRLLKENMHFEVCPWSSYLTGAWDPKTTHAVVRFKNDKANYSLNTDDPLIFKSTLDTDYQMTKKDMGFTEEEFKRLNINAAKSSFLPEEEKKELLERLYREYQ

Variants of: B1
Details: Mus musculus; pH 7.4; 20 °C; Urea; NMR; Tris-HCl 20 mM; structure 2ADA; whole UniProt chain shown

Row | Variant | ddG of mutation (higher = less stable) | denaturant m value | denaturant midpoint (higher = more stable) | unfolding free energy
1 | MAQTPAFNKPKVELHVHLDGAIKPETILYFGKKRGIALPADTVEELRNIIGMDKPLSLPGFLAKFDYYMPVIAGCREAIKRIAYEFVEMKAKEGVVYVEVRYSPHLLANSKVDPMPWNQTEGDVTPDDVVDLVNQGLQEGEQAFGIKVRSILCCMRHQPSFSLEVLELCKKYNQKTVVAMDLAGDETIEGSSLFPGHVEAYEGAVKNGIHRTVHAGEVGSPEVVREAVDILKTERVGHGYHTIEDEALYNRLLKENMHFEVCPWSSYLTGAWDPKTTHAVVRFKNDKANYSLNTDDPLIFKSTLDTDYQMTKKDMGFTEEEFKRLNINAAKSSFLPEEEKKELLERLYREYQ [W161F] | -8.7 kcal/mol and -5.98 kcal/mol | 2.48 kcal/mol/M and 1.87 kcal/mol/M | 5.3 M and 5.57 M | 13.1 kcal/mol and 10.4 kcal/mol
2 | MAQTPAFNKPKVELHVHLDGAIKPETILYFGKKRGIALPADTVEELRNIIGMDKPLSLPGFLAKFDYYMPVIAGCREAIKRIAYEFVEMKAKEGVVYVEVRYSPHLLANSKVDPMPFNQTEGDVTPDDVVDLVNQGLQEGEQAFGIKVRSILCCMRHQPSWSLEVLELCKKYNQKTVVAMDLAGDETIEGSSLFPGHVEAYEGAVKNGIHRTVHAGEVGSPEVVREAVDILKTERVGHGYHTIEDEALYNRLLKENMHFEVCPWSSYLTGAWDPKTTHAVVRFKNDKANYSLNTDDPLIFKSTLDTDYQMTKKDMGFTEEEFKRLNINAAKSSFLPEEEKKELLERLYREYQ [W117F] | -2.96 kcal/mol and -6.52 kcal/mol | 1.31 kcal/mol/M and 1.96 kcal/mol/M | 5.65 M and 5.59 M | 7.4 kcal/mol and 11 kcal/mol
3 | MAQTPAFNKPKVELHVHLDGAIKPETILYFGKKRGIALPADTVEELRNIIGMDKPLSLPGFLAKFDYYMPVIAGCREAIKRIAYEFVEMKAKEGVVYVEVRYSPHLLANSKVDPMPWNQTEGDVTPDDVVDLVNQGLQEGEQAFGIKVRSILCCMRHQPSWSLEVLELCKKYNQKTVVAMDLAGDETIEGSSLFPGHVEAYEGAVKNGIHRTVHAGEVGSPEVVREAVDILKTERVGHGYHTIEDEALYNRLLKENMHFEVCPWSSYLTGAFDPKTTHAVVRFKNDKANYSLNTDDPLIFKSTLDTDYQMTKKDMGFTEEEFKRLNINAAKSSFLPEEEKKELLERLYREYQ [W272F] |  | 1.05 kcal/mol/M and 2.25 kcal/mol/M | 5.42 M and 5.58 M | 5.69 kcal/mol and 12.6 kcal/mol
